# Patent publication US8106168B2, “Metalloproteinase binding proteins” (Dyax Corp., priority 2005, dated 2012)
# B1: M0040-A06: human antibody (Fab, IgG) that binds and inhibits MMP-14; HC SEQ ID NO: 162, LC SEQ ID NO: 163 (antibody, V domains shown)
# VH: EVQLLESGGGLVQPGGSLRLSCAASGFTFSYYGMYWVRQAPGKGLEWVSSISSSGGYTDYADSVKGRFTISRDNSKNTLYLQMNSLRAEDTAVYYCARRIKYYDIEGEGAFDIWGQGTMVTVSS
# VL: QDIVMTQTPPSLPVNPGEPASISCRSSQSLLHRNGYNYLDWYLQKPGQSPQLLIHLGSYRASGVPDRFSGSGSGTDFTLKISRVEAEDVGVYYCMQPLQTPFTFGPGTKVDIK
# modifications: Synthetically generated peptide
# B2: M0038-F01: human antibody (Fab, IgG) that binds and inhibits MMP-14; HC SEQ ID NO: 156, LC SEQ ID NO: 157 (antibody, V domains shown)
# VH: EVQLLESGGGLVQPGGSLRLSCAASGFTFSLYSMNWVRQAPGKGLEWVSSIYSSGGSTLYADSVKGRFTISRDNSKNTLYLQMNSLRAEDTAVYYCARGRAFDIWGQGTMVTVSS
# VL: QDIQMTQSPSSLSAFVGDKVTITCRASQSVGTYLNWYQQKAGKAPELLIYATSNLRSGVPSRFSGSGSGTDFTLTINTLQPEDFATYYCQQSYSIPRFTFGPGTKVDIK
# modifications: Synthetically generated peptide
# B3: M0043-G02: human antibody (Fab, IgG) that binds and inhibits MMP-14; HC SEQ ID NO: 166, LC SEQ ID NO: 167 (antibody, V domains shown)
# VH: EVQLLESGGGLVQPGGSLRLSCAASGFTFSWYPMFWVRQAPGKGLEWVSGIYSSGGPTDYADSVKGRFTISRDNSKNTLYLQMNSLRAEDTAVYYCAKDTLGRYYDFWSGYSYGMDVWGQGTTVTVSS
# VL: QDIQMTQSPGTLSLSPGERATLSCRASQSVSSSYLAWYQQKPGQAPRLLIYGASSRATGIPDRFSGSGSGTDFTLTISRLEPEDFAVYYCQSGVTFGGGTKVEIK
# modifications: Synthetically generated peptide
# How the values were obtained:
# MMP-14 [1] = target: T1, MMP-14 (Homo sapiens, UniProt P50281); experiment: Selection and phage ELISA screening of anti-MMP-14 Fabs; type: binding; details: Fab from FAB310 phage display library
# In short: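 The FAB310 phage library was panned on biotinylated MMP-14, alone or complexed with bead-bound TIMP-2, at 500 nM and then 100 nM over three rounds. Phage was eluted with 2.5 μM TIMP-2, then 100 mM TEA. For ELISA, 95 clones per round were screened against 1 μg/ml biotinylated MMP-14 captured on streptavidin in TRIS/5 mM CaCl2, pH 7.5.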
# MMP-14 [2] = target: T1, MMP-14; experiment: IC50 for MMP-14 inhibition by Fabs and IgGs; type: biochemical; details: Fab
# Protocol: MMP-14 binding proteins can be characterized in assays that measure their modulatory activity toward MMP-14 or fragments thereof in vitro or in vivo. For example, MMP-14 can be combined with a substrate such as Mca-Pro-Leu-Ala-Cys(Mob)-Trp-Ala-Arg-Dap(Dnp)-NH2 under assay conditions permitting cleavage by MMP-14. The assay is performed in the absence of the MMP-14 binding protein, and in the presence of increasing concentrations of the MMP-14 binding protein. The concentration of binding protein at which 50% of the MMP-14 activity (e.g., binding to the substrate) is inhibited is the IC50 value (Inhibitory Concentration 50%) or EC50 (Effective Concentration 50%) value for that binding protein.
# MMP-16 [3] = target: T2, MMP-16 (Homo sapiens, UniProt P51512); experiment: Cross-reactivity of anti-MMP-14 IgGs, enzymatic activity: MMP-16; type: biochemical; details: 1 μM anti-MMP-14 IgG
# T2 sequence (P51512 120-607): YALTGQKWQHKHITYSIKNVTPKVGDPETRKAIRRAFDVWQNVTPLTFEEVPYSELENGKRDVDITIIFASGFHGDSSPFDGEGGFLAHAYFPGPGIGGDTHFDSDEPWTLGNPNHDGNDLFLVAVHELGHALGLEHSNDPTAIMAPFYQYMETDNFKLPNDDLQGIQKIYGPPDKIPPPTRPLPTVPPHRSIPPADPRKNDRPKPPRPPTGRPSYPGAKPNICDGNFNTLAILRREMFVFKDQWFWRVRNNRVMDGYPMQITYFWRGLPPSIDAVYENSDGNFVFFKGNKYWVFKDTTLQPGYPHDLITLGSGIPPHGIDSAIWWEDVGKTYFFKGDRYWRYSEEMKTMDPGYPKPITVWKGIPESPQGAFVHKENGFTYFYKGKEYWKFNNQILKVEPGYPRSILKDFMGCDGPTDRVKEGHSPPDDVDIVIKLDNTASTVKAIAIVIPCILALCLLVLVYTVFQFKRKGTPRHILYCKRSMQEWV
# Protocol: The cross-reactivity of exemplary anti-MMP-14 IgGs and Fabs with other human MMPs and TACE (TNF-alpha converting enzyme) was examined. MMP and TACE enzymatic activity was monitored in the absence and presence of 1 μM anti-MMP-14 IgG antibody. Inhibition (Y) of activity ranged from approximately 50-80% of the reaction rate observed in the absence of antibody. “X” indicates no inhibition was observed. Cross-reactivity was not determined for MMP-17 because protein activity could not be detected.
# For the studies summarized in Table 12, six anti-MMP-14 IgGs were selected for cross-reactivity testings: M0043-G02, M0040-A06, M0037-D01, M037-C09, M0038-F01, M0033-H07.
# MMP-16 [4] = target: T2, MMP-16; experiment: Cross-reactivity of Fabs and IgGs with MMP-16 (Example 8); type: biochemical; set-up: key to MMP-16 (cross-reactivity, class symbol): X: Does not inhibit MMP-16 at [I] = 100 nM level; details: 5 nM MMP16, 30 minutes at 30° C., 10 μM substrate
# Protocol: For the studies summarized in Tables 13 and 14, 100 nM anti-MMP-14 Fab/IgG were incubated with 5 nM MMP16 for 30 minutes at 30° C., 10 μM of substrate was added, and the MMP-16 activity was measured.
# MMP-16 [5] = target: T2, MMP-16; experiment: Cross-reactivity of Fabs with MMP-16 (Example 9); type: biochemical; set-up: key: X: Do not inhibit MMP-16 or MMP-24 at [I] = 100 nM level; Y: partially inhibit at [I] = 100 nM level; details: Fab, 100 nM final inhibitor concentration, 5 nM MMP-16
# Protocol: (§1) For the studies summarized in Table 15, 1 μM of anti-MMP-14 Fab/IgG (100 nM final inhibitor concentration) were incubated with 5 nM of MMP-16 or 5 nM of MMP-24 for 30 minutes at 30° C., 10 μM of substrate was added, and the MMP-16 activity was measured.
# MMP-24 = MMP-24 (Homo sapiens, UniProt Q9Y5R2); experiment: Cross-reactivity of Fabs with MMP-24 (Example 9); type: biochemical; set-up: key to MMP-24 (cross-reactivity, class symbol): X: Do not inhibit MMP-16 or MMP-24 at [I] = 100 nM level; Y: partially inhibit at [I] = 100 nM level; details: Fab, 100 nM final inhibitor concentration; 5 nM MMP-24
# Chain of MMP-24 (Q9Y5R2 156-645): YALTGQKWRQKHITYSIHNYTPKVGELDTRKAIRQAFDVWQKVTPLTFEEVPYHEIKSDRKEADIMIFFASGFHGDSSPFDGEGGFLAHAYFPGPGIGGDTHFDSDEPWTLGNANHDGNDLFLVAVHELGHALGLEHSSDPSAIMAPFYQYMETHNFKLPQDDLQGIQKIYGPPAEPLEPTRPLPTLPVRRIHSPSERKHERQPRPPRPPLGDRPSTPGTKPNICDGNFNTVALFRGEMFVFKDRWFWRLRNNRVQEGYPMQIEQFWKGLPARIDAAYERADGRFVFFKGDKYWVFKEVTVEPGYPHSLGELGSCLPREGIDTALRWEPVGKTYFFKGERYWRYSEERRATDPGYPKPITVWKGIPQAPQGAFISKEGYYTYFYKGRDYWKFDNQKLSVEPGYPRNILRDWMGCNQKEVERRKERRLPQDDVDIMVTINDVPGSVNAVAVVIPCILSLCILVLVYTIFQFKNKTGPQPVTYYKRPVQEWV
# Protocol: as §1
Molecule,bind to human MMP-14 (MMP-14 [1]),bind to and inhibit human MMP-14 (MMP-14 [2]),Cross reactivity: inhibition of MMP-16 activity (MMP-16 [3]),"MMP-16 (cross-reactivity, class symbol) (MMP-16 [4]; Fab 100 nM)","MMP-16 (cross-reactivity, class symbol) (MMP-16 [4]; IgG 100 nM)","MMP-16 (cross-reactivity, class symbol) (MMP-16 [5])",MMP-24 inhibition (MMP-24),"MMP-24 (cross-reactivity, class symbol) (MMP-24)",MMP-16 inhibition (MMP-16 [4]; Fab 100 nM),MMP-16 inhibition (MMP-16 [4]; IgG 100 nM)
B1,bind to human MMP-14,bind to and inhibit human MMP-14,Y (Inhibition (Y) of activity ranged from approximately 50-80% of the reaction rate observed in the absence of antibody),X,X,X,Y 65% inhibition,,,
B2,bind to human MMP-14,bind to and inhibit human MMP-14,Y (Inhibition (Y) of activity ranged from approximately 50-80% of the reaction rate observed in the absence of antibody),X,X,X,,X,,
B3,bind to human MMP-14,bind to and inhibit human MMP-14,Y (Inhibition (Y) of activity ranged from approximately 50-80% of the reaction rate observed in the absence of antibody),,,X,Y 74% inhibition,,Y 70% inhibition,Y 94% inhibition
